Starred links: 1 amine or outer side, 2 acyl side, 3 side chain; linkers in the order of their positions; H or OH if unused. Positions of bridges follow the written chain, without caps; N, C: chain ends. Non-standard residues stand in square brackets, D forms with d. Primed or numbered codes have the meaning given here. No end group written: not given here. Pmc′ = pentamethylenecysteine (from Boc-D/L-Pmc), O=C(C(N[*:1])C1(S[*:3])CCCCC1)[*:2]; Cys(β,β-pentamethylene) = O=C([C@@H](N[*:1])C1(S[*:3])CCCCC1)[*:2]; Tyr(Me)″ = COc1ccc(C[C@H](N[*:1])C(=O)[*:2])cc1; 2Nal = N[C@@H](Cc1ccc2ccccc2c1)C(=O)O; Pen = CC(C)(S)[C@H](N)C(=O)O
T1: Vitronectin receptor (human), P06756
T1 chain 1: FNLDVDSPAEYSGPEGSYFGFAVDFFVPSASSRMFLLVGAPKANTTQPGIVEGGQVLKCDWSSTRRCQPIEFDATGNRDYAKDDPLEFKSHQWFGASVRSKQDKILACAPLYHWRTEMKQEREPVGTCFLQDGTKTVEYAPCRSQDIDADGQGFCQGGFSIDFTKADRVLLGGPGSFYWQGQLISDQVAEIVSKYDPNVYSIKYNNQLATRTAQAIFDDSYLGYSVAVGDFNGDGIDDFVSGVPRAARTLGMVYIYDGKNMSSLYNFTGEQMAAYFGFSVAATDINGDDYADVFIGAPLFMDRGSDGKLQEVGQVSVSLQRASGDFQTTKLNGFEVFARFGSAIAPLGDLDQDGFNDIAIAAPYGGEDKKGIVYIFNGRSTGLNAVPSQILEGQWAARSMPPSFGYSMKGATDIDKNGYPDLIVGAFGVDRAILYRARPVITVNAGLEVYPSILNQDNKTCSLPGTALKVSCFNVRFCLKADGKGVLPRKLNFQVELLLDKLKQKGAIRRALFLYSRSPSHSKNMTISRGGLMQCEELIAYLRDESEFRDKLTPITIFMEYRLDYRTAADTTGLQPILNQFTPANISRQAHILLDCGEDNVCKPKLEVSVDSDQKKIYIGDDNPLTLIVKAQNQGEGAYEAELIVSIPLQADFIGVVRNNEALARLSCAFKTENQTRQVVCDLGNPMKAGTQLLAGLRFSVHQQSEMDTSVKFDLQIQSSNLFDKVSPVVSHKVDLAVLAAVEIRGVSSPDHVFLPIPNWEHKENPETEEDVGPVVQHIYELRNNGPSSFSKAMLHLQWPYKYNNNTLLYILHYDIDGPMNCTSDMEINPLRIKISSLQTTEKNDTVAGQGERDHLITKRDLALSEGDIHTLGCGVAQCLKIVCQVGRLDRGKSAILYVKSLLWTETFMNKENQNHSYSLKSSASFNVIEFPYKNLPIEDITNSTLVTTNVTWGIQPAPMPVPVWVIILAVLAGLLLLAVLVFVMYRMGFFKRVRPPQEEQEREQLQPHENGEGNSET
T1 chain 2: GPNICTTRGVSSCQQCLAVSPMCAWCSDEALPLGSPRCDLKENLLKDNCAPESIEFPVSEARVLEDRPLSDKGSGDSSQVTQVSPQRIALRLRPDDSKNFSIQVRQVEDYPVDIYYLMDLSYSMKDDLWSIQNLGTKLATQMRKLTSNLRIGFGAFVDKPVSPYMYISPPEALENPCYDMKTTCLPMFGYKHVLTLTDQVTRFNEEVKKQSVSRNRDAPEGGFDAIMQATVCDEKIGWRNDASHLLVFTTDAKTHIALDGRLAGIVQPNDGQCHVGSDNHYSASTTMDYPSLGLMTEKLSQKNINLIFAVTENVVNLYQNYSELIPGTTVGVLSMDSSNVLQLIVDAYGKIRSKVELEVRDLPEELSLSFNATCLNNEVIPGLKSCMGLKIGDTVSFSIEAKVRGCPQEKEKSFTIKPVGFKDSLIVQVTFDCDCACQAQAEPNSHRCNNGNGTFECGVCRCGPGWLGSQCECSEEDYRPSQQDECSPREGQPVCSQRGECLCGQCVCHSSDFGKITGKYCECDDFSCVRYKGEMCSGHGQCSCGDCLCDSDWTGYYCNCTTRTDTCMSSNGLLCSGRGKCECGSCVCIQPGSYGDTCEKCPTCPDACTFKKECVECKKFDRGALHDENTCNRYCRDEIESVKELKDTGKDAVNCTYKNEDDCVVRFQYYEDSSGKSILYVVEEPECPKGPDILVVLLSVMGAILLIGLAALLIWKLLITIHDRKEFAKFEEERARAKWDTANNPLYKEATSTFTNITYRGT

B1: R(Pmc)G(DY)RGD(Y-OMe)RCR (peptide)
chain: R[Cys(β,β-pentamethylene)]GXRGD[Tyr(Me)″]RCR
modifications: disulfide 2-10; not fully specified (residue 4); printed as R(Pmc)G(DY)RGD(Y-OMe)RCR
B2: G(Pen)… (peptide)
peptide: G[Pen]IARGDWNCA
modifications: disulfide 2-10
B3: R(Pmc)SHRGD(Y-OMe)RCR (peptide)
chain: R[Pmc′]SHRGD[Y‑OMe]RCR
modifications: disulfide 2-10
B4: R(Pmc)GHRGD(2-Nal)RCR (peptide)
chain: R[Cys(β,β-pentamethylene)]GHRGD[2Nal]RCR
modifications: disulfide 2-10
B5: R(Pmc)RHRGD(Y-OMe)RCR (peptide)
chain: R[Pmc′]RHRGD[Y‑OMe]RCR
modifications: disulfide 2-10

Legend:
[1] = molecular target: Fibronectin receptor (human), P08648; experiment: ELISA; conditions: modification not given
Chain of Fibronectin receptor (human), P08648 (P08648 42-1049, chain 1 of 2): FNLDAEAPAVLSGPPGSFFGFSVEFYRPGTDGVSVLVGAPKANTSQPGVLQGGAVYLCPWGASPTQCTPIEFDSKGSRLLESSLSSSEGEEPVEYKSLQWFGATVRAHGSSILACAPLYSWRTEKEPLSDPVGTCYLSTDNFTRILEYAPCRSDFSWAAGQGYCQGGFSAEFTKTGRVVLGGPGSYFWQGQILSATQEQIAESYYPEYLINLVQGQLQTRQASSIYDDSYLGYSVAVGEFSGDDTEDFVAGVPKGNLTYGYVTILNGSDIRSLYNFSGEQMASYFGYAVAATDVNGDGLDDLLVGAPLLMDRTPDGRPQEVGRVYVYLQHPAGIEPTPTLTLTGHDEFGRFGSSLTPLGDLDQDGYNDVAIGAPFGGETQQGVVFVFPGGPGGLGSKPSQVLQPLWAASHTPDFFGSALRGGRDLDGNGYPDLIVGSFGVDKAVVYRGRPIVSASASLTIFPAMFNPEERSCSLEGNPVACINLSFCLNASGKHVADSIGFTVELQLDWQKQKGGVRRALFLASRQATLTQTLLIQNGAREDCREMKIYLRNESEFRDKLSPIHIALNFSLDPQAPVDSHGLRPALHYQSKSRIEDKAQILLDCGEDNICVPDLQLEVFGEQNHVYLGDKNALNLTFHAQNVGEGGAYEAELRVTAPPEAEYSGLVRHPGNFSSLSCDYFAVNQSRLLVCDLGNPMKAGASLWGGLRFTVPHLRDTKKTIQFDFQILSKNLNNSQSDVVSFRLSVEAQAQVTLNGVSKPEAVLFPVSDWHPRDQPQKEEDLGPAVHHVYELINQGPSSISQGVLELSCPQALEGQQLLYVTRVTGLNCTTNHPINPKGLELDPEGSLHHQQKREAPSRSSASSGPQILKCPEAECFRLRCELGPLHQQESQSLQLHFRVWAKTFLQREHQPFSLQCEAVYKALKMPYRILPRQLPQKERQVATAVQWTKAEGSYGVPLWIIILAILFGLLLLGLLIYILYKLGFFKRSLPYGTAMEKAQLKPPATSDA
Chain of Fibronectin receptor (human), P08648 (chain, as listed by the source, chain 2 of 2): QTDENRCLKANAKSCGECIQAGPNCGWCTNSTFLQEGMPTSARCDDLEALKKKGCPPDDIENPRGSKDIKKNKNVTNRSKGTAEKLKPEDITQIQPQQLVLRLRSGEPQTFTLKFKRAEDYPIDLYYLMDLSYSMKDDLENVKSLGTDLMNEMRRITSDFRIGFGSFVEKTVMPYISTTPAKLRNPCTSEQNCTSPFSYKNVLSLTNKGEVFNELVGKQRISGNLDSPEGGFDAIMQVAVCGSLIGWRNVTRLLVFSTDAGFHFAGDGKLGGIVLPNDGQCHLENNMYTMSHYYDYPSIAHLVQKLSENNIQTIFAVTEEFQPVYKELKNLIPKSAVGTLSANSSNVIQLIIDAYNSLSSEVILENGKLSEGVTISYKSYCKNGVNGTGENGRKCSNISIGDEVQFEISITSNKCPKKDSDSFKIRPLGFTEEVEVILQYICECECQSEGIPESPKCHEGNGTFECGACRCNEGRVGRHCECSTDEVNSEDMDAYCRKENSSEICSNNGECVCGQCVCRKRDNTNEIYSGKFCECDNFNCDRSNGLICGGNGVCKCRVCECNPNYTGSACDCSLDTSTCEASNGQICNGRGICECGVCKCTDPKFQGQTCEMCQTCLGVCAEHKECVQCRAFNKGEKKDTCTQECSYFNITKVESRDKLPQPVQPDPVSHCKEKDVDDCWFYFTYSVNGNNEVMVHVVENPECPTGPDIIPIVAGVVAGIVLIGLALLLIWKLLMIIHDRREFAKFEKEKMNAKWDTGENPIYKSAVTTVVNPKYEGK

[2] = molecular target: Platelet glycoprotein IIb/IIIa (human), P08514; experiment: cell-based or functional assay
[3] = molecular target: Platelet glycoprotein IIb/IIIa (human), P08514; experiment: competition, ELISA or liposome assay
[4] = molecular target: T1, Vitronectin receptor (human), P06756; experiment: competition, ELISA or liposome assay, vitronectin coated
[5] = molecular target: Platelet glycoprotein IIb/IIIa (human), P08514; experiment: ELISA; conditions: modification not given

Row | Binder | IC50 [1] [µM] | IC50 [5] [µM] | further results
1 | B1 | 10 | – | –
2 | B2 | – | – | IC50, ADP-Stimulated Aggregation [2]: 1.2 µM; IC50 [3]: 0.01 µM; IC50 [4]: 0.04 µM
3 | B3 | > 10 | – | –
4 | B4 | – | 0.07 | –
5 | B5 | – | 0.07 | –

Source: US6521594
